In patent US20260248947A1, “Methods of Treating Cancer Using Anti-HER2 Antibody-Drug Conjugates and HER2 Kinase Inhibitors” (Seagen Inc., priority 2023, published 2026):

Columns and labels:
[1] = tested on: HER2 cell surface protein levels; assay: qFACS analysis of cell-surface HER2 levels upon tucatinib treatment; format: cell-based, human; conditions: 100 nM tucatinib
Method: HER2 cell surface levels were determined by qFACS analysis. Briefly, cells were stained with an anti-HER2 antibody (R&D Systems, Inc.; #MAB1129) and Zombie Aqua (BioLegend, Inc.; #423101) for dead cell exclusion. Cells were fixed, and HER2 receptor copy number per cell was quantified using a QIFIKIT (Agilent Dako) per the manufacturer's protocol.
(§1) The internalization experiments were conducted by detecting an antibody-bound pH sensitive probe using automated time-lapse microscopy. Briefly, breast cancer cell lines SK-BR-3, BT-474, HCC-202, and EFM-192C and gastric cancer cell lines NCI-N87 and OE19 were seeded in 96-well flat clear-bottom black tissue culture-treated microplates (Coming, cat #3603). Cells were plated at 1.5×10^4-2.5×10^4 cells/200 μL/well in growth medium and allowed to adhere overnight at 37° C. Disitamab and isotype control antibody (human IgG) were labeled with IncuCyte Fabfluor-pH Red Antibody Labeling Reagent (Essen Bioscience, cat #4722) according to the manufacturer's protocol. Volumes of the test antibodies, Fabfluor reagent and medium required were calculated at 2× the final assay concentration, and the Fabfluor reagent was added at a molar ratio of 1:3 to the antibody. Antibody and Fabfluor were mixed gently and incubated at 37° C. for 15 minutes. Media containing Fabluor-labeled disitamab ([…] final concentration) with or without tucatinib (100 nM final concentration) was added to cells. The plates were arranged on microplate trays in the IncuCyte SX3 system (Essen Bioscience), and scans were acquired using the Standard protocol. Phase data and red channel data (acquisition time set to 400 ms) were collected, with 4 images per well every 30 minutes for the first 6 hours and every 2 hours after that for up to 72.5 hours with the objective set at 10×. Quantification of fluorescence signal intensity was performed using the IncuCyte software analysis tool. Cell surface HER2 density was quantified using qFACS analysis as described supra.

[2] = tested on: HER2+ locally advanced or metastatic breast cancer (LA/mBC); conditions: subjects that progressed following taxane plus trastuzumab treatment; cited from earlier work
[3] = target: T1, HER2 (Homo sapiens, UniProt P04626); assay: Internalization assay of Fabfluor-labeled disitamab compared to trastuzumab (IncuCyte); format: cell-based; design: endogenous in cells; host or cells: SK-BR-3, BT-474, HCC-202, EFM-192C, BT-483, CAMA-1, NCI-N87, OE19, RERF-GC-1B
Method: The internalization experiments were conducted by detecting an antibody-bound pH sensitive probe using automated time-lapse microscopy. Briefly, breast cancer cell lines SK-BR-3, BT-474, HCC-202, EFM-192C, BT-483, and CAMA-1 and gastric cancer cell lines NCI-N87, OE19, and RERF-GC-1B were seeded in 96-well flat clear-bottom black tissue culture-treated microplates (Corning, cat #3603). Cells were plated at 1.5×10^4-2.5×10^4 cells/200 μL/well in growth medium and allowed to adhere overnight at 37° C. Disitamab, trastuzumab, and isotype control antibody (human IgG) were labeled with IncuCyte Fabfluor-pH Red Antibody Labeling Reagent (Essen Bioscience, cat #4722) according to the manufacturer's protocol. Volumes of the test antibodies, Fabfluor reagent and medium required were calculated at 2× the final assay concentration, and the Fabfluor reagent was added at a molar ratio of 1:3 to the antibody. Fabfluor dye fluoresces only upon exposure to an acidified compartment, namely endocytic vesicles and lysosomes, signifying internalization and intracellular processing of the ADC. Antibody and Fabfluor were mixed gently and incubated at 37° C. for 15 minutes. Media containing Fabfluor-labeled disitamab or trastuzumab ([…] final concentration) was added to cells. The plates were arranged on microplate trays in the IncuCyte SX3 system (Essen Bioscience), and scans were acquired using the Standard protocol. Phase data and red channel data (acquisition time set to 400 ms) were collected, with 4 images per well every 30 minutes for the first 6 hours and every 2 hours after that for up to 40 hours with the objective set at 10×. Quantification of fluorescence signal intensity was performed using the IncuCyte software analysis tool.

[4] = target: T1, HER2; assay: Internalization assay of Fabfluor-labeled disitamab with or without tucatinib (IncuCyte); format: cell-based; design: endogenous in cells; host or cells: SK-BR-3, BT-474, HCC-202, EFM-192C, NCI-N87, OE19; conditions: 100 nM tucatinib
Method: as §1
The analysis was refined and tuned per cell line utilizing phase area confluence and manual image selection for preview and training of the algorithm. Upon completion of the analysis, red object integrated intensity (RCU×μm^2/image) data were graphed using GraphPad Prism. The experiment was performed in duplicate (technical replicates) for two biological replicates.

Cc1cc(Nc2ncnc3ccc(NC4=NC(C)(C)CO4)cc23)ccc1Oc1ccn2ncnc2c1 [tucatinib, Tucatinib]
cell-surface HER2 levels over time compared with untreated cells ([1]; BT-474): increase
cell-surface HER2 levels over time compared with untreated cells ([1]; BT-483): increase
cell-surface HER2 levels over time compared with untreated cells ([1]; CAMA-1): increase
cell-surface HER2 levels over time compared with untreated cells ([1]; EFM-192C): increase
cell-surface HER2 levels over time compared with untreated cells ([1]; HCC-202): increase
cell-surface HER2 levels over time compared with untreated cells ([1]; NCI-N87): increase
cell-surface HER2 levels over time compared with untreated cells ([1]; OE19): increase
cell-surface HER2 levels over time compared with untreated cells ([1]; RERF-GC-1B): increase
cell-surface HER2 levels over time compared with untreated cells ([1]; SK-BR-3): increase

trastuzumab emtansine [T-DM1]
overall response (either complete or partial response) [2]: 34.2%
subjects alive without disease progression at 12 months [2]: 34.1%

disitamab
disitamab internalization as compared to trastuzumab ([3]; BT-474): Increased
disitamab internalization as compared to trastuzumab ([3]; BT-483): Increased
disitamab internalization as compared to trastuzumab ([3]; CAMA-1): Increased
disitamab internalization as compared to trastuzumab ([3]; EFM-192C): Increased
disitamab internalization as compared to trastuzumab ([3]; HCC-202): Increased
disitamab internalization as compared to trastuzumab ([3]; NCI-N87): Increased
disitamab internalization as compared to trastuzumab ([3]; OE19): Increased
disitamab internalization as compared to trastuzumab ([3]; RERF-GC-1B): Increased
disitamab internalization as compared to trastuzumab ([3]; SK-BR-3): Increased
disitamab internalization in the presence of tucatinib compared to disitamab alone ([4]; EFM-192C): increased
disitamab internalization in the presence of tucatinib compared to disitamab alone ([4]; NCI-N87): increased
disitamab internalization in the presence of tucatinib compared to disitamab alone ([4]; OE19): increased
disitamab internalization in the presence of tucatinib compared to disitamab alone ([4]; SK-BR-3): increased
